Results taken from patent US20200140512A1 (published 2020).

Experiments:
Cyno PD-1 = target: T1, Cyno PD-1; assay: Octet
T1 chain: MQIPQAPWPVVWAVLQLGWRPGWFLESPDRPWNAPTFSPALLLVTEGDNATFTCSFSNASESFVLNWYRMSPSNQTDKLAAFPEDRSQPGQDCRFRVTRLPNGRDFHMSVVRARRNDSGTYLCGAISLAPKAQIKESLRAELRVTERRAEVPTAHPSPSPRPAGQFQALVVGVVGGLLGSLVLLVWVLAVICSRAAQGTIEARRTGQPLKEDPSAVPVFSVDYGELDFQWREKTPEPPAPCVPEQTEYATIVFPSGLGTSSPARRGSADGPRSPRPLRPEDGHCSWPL

human PD-1-His = human PD-1-His (human, UniProt Q15116 25-167); assay: Octet
Sequence of human PD-1-His (Q15116 25-167): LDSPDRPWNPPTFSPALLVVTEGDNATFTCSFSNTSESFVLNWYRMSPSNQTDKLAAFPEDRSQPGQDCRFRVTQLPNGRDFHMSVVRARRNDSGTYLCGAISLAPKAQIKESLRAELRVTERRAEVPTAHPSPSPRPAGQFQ

B1: XENP28536 (bivalent mAb based on humanized mAb C, mAb C[PD-1]_H1L1) (antibody, V domains shown)
VH: EVQLVESGGGLVQPGGSLRLSCAASGFTFSSFGMHWVRQAPGKGLEWVSYISSGSSIIYYADSVKGRFTISRDNAKNSLYLQMNSLRAEDTAVYYCARGGRLVWSPDYWGQGTLVTVSS
VL: DIVMTQSPDSLAVSLGERATINCKSSQSLLNSGNQKNYLTWYQQKPGQPPKLLIYWASTRESGVPDRFTGSGSGTDFTLTISSLQAEDVAVYYCQNDYSYPFTFGSGTKLEIK
Kd (Cyno PD-1): 35.8 nM | Kd (human PD-1-His): 24 nM

B2: XENP28537 (humanized variant of anti-PD-1 mAb C, bivalent human IgG1) (antibody, V domains shown)
VH: B1 VH
VL: DIVMTQSPLSLPVTPGEPASISCRSSQSLLNSGNQKNYLTWYLQKPGQPPQLLIYWASTRESGVPDRFTGSGSGTDFTLKISRVEAEDVGVYYCQNDYSYPFTFGSGTKLEIKR
Kd (Cyno PD-1): 42 nM

B3: XENP28519 (bivalent mAb based on humanized mAb A) (antibody, V domains shown)
VH: QVQLQESGPGLVKPSQTLSLTCTVSGHSITSDYAWNWIRQPPGKKLEWIGYISYSGYTTYNPSLKSRVTISRDTSKNQFSLKLSSVTAADTAVYFCARDLDYGPWFAYWGQGTLVTVSS
VL: DIQMTQSPSSLSASVGDRVTITCRASENIHNYLAWYQQKPGKSPKLLVYNVKTLADGVPSRFSGSGSGTDYTLTISSLQPEDFATYYCQHFWSSPWTFGGGTKVEIKR
Kd (human PD-1-His): 11.9 nM
